Measurements reported in PMC7067772, “Digenic inheritance of mutations in EPHA2 and SLC26A4 in Pendred syndrome” (Nature Communications, 2020).

Key:
[1] = target: V5-EphA2 (pcDNA3.2-V5-EphA2) (UniProt P29317); assay: co-immunoprecipitation with densitometric quantification; details: n = 3; parent: est. 1.0; read off a plot
ephrin-A4 (Homo sapiens) = ephrin-A4 (Homo sapiens) (UniProt P52798); details: cited from earlier work
ephrin-B2 (Homo sapiens) = ephrin-B2 (Homo sapiens) (UniProt P52799); details: cited from earlier work
ephrin-A5 (Homo sapiens) = ephrin-A5 (Homo sapiens) (UniProt P52803); details: cited from earlier work
[2] = target: T1, fc-fusion protein of the EphA2 extracellular domain (UniProt P29317 24-537); assay: ELISA; plates coated with ephrin-A5 Fc or ephrin-B2 Fc (3 μg/ml, 50 mM carbonate buffer pH 9.5, overnight at 4 °C); diluted EphA2 Fc analyte 1 h at room temperature; detection with biotinylated 1F7 mAb and UltraStreptavidin-HRP, OD492 nm (the results say that the EphA2 Fc was immobilised); details: both partners purified
T1 construct: EphA2 extracellular domain; Detected in the ELISA with biotinylated 1F7 mAb; also called EphA2 Fc
T1 sequence (P29317 24-537): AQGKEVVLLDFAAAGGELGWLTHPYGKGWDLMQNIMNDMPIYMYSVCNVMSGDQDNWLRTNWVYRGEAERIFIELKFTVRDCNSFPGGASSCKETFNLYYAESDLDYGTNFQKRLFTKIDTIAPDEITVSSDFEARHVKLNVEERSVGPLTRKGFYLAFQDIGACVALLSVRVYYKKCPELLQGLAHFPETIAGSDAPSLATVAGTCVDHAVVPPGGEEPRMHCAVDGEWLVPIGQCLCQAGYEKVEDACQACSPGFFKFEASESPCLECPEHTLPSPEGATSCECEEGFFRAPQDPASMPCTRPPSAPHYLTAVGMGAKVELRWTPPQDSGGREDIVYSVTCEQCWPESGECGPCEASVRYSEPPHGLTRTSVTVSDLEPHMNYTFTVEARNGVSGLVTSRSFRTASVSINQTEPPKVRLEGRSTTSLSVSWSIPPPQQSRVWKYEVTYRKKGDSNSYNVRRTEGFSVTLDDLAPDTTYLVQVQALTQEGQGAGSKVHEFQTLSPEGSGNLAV

Chain of V5-EphA2 (pcDNA3.2-V5-EphA2) (P29317 24-976): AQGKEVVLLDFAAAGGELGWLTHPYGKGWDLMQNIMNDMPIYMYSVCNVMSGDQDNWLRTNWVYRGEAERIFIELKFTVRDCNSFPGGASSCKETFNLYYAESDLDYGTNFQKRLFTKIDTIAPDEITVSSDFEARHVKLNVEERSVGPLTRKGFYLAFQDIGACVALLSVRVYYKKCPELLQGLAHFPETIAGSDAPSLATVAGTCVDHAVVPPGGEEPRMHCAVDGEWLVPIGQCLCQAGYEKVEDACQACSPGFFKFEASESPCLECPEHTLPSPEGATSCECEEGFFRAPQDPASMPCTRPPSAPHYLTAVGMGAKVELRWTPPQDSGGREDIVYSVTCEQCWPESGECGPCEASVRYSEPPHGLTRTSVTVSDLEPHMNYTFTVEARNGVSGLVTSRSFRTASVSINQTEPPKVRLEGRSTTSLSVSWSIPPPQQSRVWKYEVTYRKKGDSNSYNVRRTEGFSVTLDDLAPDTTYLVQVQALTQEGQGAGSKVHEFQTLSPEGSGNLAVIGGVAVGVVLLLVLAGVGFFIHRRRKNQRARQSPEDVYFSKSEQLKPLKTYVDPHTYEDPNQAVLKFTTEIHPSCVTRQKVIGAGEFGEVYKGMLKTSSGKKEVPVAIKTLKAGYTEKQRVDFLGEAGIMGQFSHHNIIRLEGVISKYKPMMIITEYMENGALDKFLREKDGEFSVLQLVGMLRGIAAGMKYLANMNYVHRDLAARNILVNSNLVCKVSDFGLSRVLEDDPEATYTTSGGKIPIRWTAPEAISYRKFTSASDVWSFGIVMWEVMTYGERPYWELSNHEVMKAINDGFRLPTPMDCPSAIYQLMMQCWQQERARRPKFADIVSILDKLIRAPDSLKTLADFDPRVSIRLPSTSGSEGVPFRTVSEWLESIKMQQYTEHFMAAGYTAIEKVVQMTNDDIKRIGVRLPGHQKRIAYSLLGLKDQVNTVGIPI
Chain of ephrin-A4 (Homo sapiens) (P52798 26-170): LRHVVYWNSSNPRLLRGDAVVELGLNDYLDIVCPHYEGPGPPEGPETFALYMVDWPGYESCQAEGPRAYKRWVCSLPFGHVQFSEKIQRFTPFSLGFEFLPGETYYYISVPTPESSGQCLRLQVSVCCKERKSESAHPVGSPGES

With “myc-tagged pendrin (pCMV-Myc-pendrin) (from UniProt O43511) F355L” the ratio to parent [1] was 0.98.

For EphA4 (from UniProt P54764), the Kd (ephrin-A4 (Homo sapiens)) is listed as 36 nM, the Kd (ephrin-B2 (Homo sapiens)) is listed as 10.8 µM and the Kd (ephrin-A5 (Homo sapiens)) is listed as 360 nM.

B1: ephrin-A5 Fc fusion protein (Fc fusion, UniProt P52803 21-203, looked up)
chain: QDPGSKAVADRYAVYWNSSNPRFQRGDYHIDVCINDYLDVFCPHYEDSVPEDKTERYVLYMVNFDGYSACDHTSKGFKRWECNRPHSPNGPLKFSEKFQLFTPFSLGFEFRPGREYFYISSAIPDNGRRSCLKLKVFVRPTNSCMKTIGVHDRVFDVNDKVENSLEPADDTVHESAEPSRGEN
notes: ephrin-A5
For B1, the Kd [2] was 2 nM.

B2: soluble ephrin-B2 extracellular domain-Fc fusion protein (Fc fusion, UniProt P52799 28-229, looked up)
chain: IVLEPIYWNSSNSKFLPGQGLVLYPQIGDKLDIICPKVDSKTVGQYEYYKVYMVDKDQADRCTIKKENTPLLNCAKPDQDIKFTIKFQEFSPNLWGLEFQKNKDYYIISTSNGSLEGLDNQEGGVCQTRAMKILMKVGQDASSAGSTRNKDPTRRPELEAGTNGRSSTTSPFVKPNPGSSTDGNSAGHSGNNILGSEVALFA
notes: ephrin-B2 extracellular domain; also called ephrin-B2-Fc; ephrin-B2 Fc chimera protein
For B2, the Kd [2] was 85 nM.
